From patent publication US20250075192 come the findings set out here.

This series has as its target T1, Wild type RepD from Staphylococcus aureus, as oriD DNA-RepD adduct.
T1 chain: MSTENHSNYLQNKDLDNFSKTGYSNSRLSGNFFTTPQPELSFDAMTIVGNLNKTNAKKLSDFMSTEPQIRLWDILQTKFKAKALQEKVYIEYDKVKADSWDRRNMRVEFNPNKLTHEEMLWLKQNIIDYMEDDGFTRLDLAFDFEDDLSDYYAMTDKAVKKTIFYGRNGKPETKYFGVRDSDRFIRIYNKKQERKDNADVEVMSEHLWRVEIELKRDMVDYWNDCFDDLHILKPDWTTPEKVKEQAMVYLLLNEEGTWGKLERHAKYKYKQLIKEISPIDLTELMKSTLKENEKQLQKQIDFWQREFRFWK

B1: PcrA-DM1, a double cysteine mutant of PcrA, stochastically labeled with a mixture of donor and acceptor fluorophores (protein)
chain: MNFLSEQLLAHLNKEQQEAVRTTEGPLLIMAGAGSGKTRVLTHRIAYLMAEKHVAPWNILAITFTNKAAREMRERVQSLLGGAAEDVWISTFHSMAVRILRRDIDRIGINRNFSILDPTDQLSVMKTILKEKNIDPKKFEPRTILGTISAAKNELLPPEQFAKRASTYYEKVVSDVYQEYQQRLLRCHSLDFDDLIMTTIQLFDRVPDVLHYYQYKFQYIHIDEYQDTNRAQYTLVKKLAERFQNIAAVGDADQSIYRWRGADIQNILSFERDYPNAKVILLEQNYRSTKRILQAANEVIEHNVNRKPKRIWTENPEGKPILYYEAMNEADEAQFVAGRIREAVERGERRYRDFAVLYRTNAQSRVMEEMLLKANIPYQIVGGLKFYDRKEIKDILAYLRVIANPDDDCSLLRIINVPKRGIGASTIDKLVRYAADHELSLFEALGELEMIGLGAKAAGALAAFRSQLEQWTQLQEYVSVTELVEEVLDKSGYREMLKAERTIEAQSRLENLDEFLSVTKHFENVSDDKSLIAFLTDLALISDLDELDGTEQAAEGDAVMLMTLHAAKGLEFPVVFLIGMEEGIFPHNRSLEDDDEMEEERRLAYVGITRAEEELVLTSAQMRTLFGNIQMDPPSRFLNEIPAHLLETASRRQAGASRPAVSRPQASGAVGSWKVGDRANHRKWGIGTVVSVRGGGDDQELDIAFPSPIGIKRLLAKFAPIEKV
For the protein B1, the “EFRET distribution of dual labeled PcrA-DM1 (smFRET, intramolecular conformation of PcrA)” value is “the presence of RepD indeed biases PcrA toward the closed high EFRET conformation”.
